Experimental data taken from patent publication US20150056205A1, “STEROID SPARING AGENTS AND METHODS OF USING SAME” (BIOGEN IDEC MA INC., priority 2004, published 2015).

Experiments:
[1] = tested on: subjects with moderately to severely active Crohn's disease; test: placebo-controlled one or two infusion study in moderately to severely active Crohn's disease; format: in vivo; conditions: for subjects withdrawn due to adverse events: placebo 2; for subjects reporting a serious adverse event: placebo 9
Experimental: Another earlier study was a double-blind, placebo-controlled, parallel group, multicenter, efficacy, safety, and tolerability study of either one or two intravenous infusions of placebo, 3 or 6 mg/kg natalizumab in subjects with moderately to severely active Crohn's disease. […] Sixty-eight subjects were randomized to a single infusion of 3 mg/kg, 66 to two infusions of 3 mg/kg at a 4-week interval, 51 to two infusions of 6 mg/kg at a 4-week interval and 63 to receive placebo.

[2] = tested on: subjects with active ulcerative colitis; test: open-label single infusion study in active ulcerative colitis; format: in vivo; conditions: for mean PTAI score: 9.7 at Week 0
Experimental: Another earlier study was an open-label safety, tolerability, and efficacy study of a single infusion of 3 mg/kg intravenous natalizumab in male and female subjects with active ulcerative colitis.

[3] = tested on: mice, guinea pigs, and monkeys; conditions: in vivo
Experimental: Single- and multiple-dose toxicity studies have been performed in mice, guinea pigs, and monkeys. All toxicology studies were carried out using natalizumab and included an acute study in guinea pigs, subacute studies in mouse and cynomolgus monkeys, and mutagenicity and tissue cross-reactivity studies.

[4] = tested on: pregnant cynomolgus monkeys; test: follow-up reproductive toxicity study; format: in vivo, cynomolgus monkey; conditions: two in the control
Experimental: (§1) In mice, there is evidence that α4 integrin and VCAM-1 play a role in placental and cardiac development, and they may also play a wider role in fetal development. There is, therefore, a risk of an abortifacient effect or teratogenicity if α4 integrin is blocked by natalizumab. A preliminary reproductive toxicity study exposed groups of five pregnant cynomolgus monkeys to repeated intravenous doses of 0.06, 0.3, or 30 mg/kg natalizumab. One of five pregnant females in the 30 mg/kg group aborted at Day 31 of gestation after receiving five doses of natalizumab. Because the overall rate of abortion fell within the rate of spontaneous abortion in this species, the event was not believed to be related to natalizumab. An ongoing follow-up reproductive toxicity study has exposed groups of 10 to 15 pregnant cynomolgus monkeys to repeated intravenous doses of 3, 10, or 30 mg/kg. Embryo deaths have occurred at similar rates in all treatment groups: two in the control, one in the 3 mg/kg, two in the 10 mg/kg and two in the 30 mg/kg groups respectively. As a precaution, women of childbearing potential must utilize effective contraception throughout the duration of the study and for at least 3 months after the last infusion of study drug, and must have a negative pregnancy test at the time of each natalizumab dosing.

[5] = tested on: pregnant cynomolgus monkeys; test: preliminary reproductive toxicity study; format: in vivo; conditions: 30 mg/kg group, repeated intravenous doses, Day 31 of gestation after five doses
Experimental: as §1

[6] = tested on: subjects diagnosed with chronic active Crohn's disease; test: placebo-controlled single infusion study in chronic active Crohn's disease; format: in vivo
Experimental: Earlier studies in Crohn's disease and ulcerative colitis are summarized below. One study was a randomized, double-blind, placebo-controlled, safety, tolerability, and efficacy study of a single infusion of intravenous 3 mg/kg natalizumab in male and female subjects diagnosed with chronic active Crohn's disease. Thirty subjects were enrolled; 18 were treated with natalizumab (3 mg/kg) and 12 with placebo.

guinea pig EAE = test: guinea pig Experimental Allergic Encephalitis (EAE) model; format: in vivo
Experimental: The initial dose of natalizumab selected for clinical evaluation was based on non-clinical studies in the guinea pig Experimental Allergic Encephalitis (EAE) model. […] A single dose of 3 mg/kg appeared to provide serum concentrations of natalizumab associated with α4 integrin receptor blockade for up to approximately 3 weeks, and 6 mg/kg for about 6 weeks.

[7] = Week 6, two infusions of 3 mg/kg

For natalizumab, the “remission rate (CDAI<150)” value [1, 7] was 46%, the “response rate (≧70 point drop in CDAI)” value [1, 7] was 73% and the “response rate (≧100 drop in CDAI)” value [1, 7] was 56%. For the same substance, the “remission rates (CDAI<150)” value ([1]; Weeks 8 and 12, two infusions of 3 mg/kg and two infusions of 6 mg/kg) was 41-43%, the C-reactive protein ([1]; in vivo) was “decreases” and the “quality of life, Inflammatory Bowel Disease Questionnaire” value ([1]; in vivo) was “Statistically significant improvements”. The “subjects withdrawn due to adverse events” value ([1]; single 3.0 mg/kg infusion) was 1, the “subjects reporting a serious adverse event” value ([1]; single 3.0 mg/kg infusion) was 8 and the safety and tolerability ([1]; subjects with active CD) was “safe and well tolerated”. The “subjects withdrawn due to adverse events” value ([1]; two 3 mg/kg infusions) was 2, the “subjects reporting a serious adverse event” value ([1]; two 3 mg/kg infusions) was 8 and the “subjects withdrawn due to adverse events” value ([1]; two 6 mg/kg infusions) was 3. For the same substance, the “subjects reporting a serious adverse event” value ([1]; two 6 mg/kg infusions) was 7, the “mean PTAI score” value ([2]; 1 week post-treatment) was 6.9 and the “subjects with good clinical response (PTAI score ≦5)” value ([2]; 2 and 4 weeks after single 3 mg/kg infusion, ten subjects) was 50%. For the same substance, the “mean PTAI score” value ([2]; 2 weeks post-treatment) was 5.7, the “mean PTAI score” value ([2]; 4 weeks post-treatment) was 4.9 and the “subjects who received no rescue medication” value ([2]; between Weeks 0 and 4) was “Seventy percent”. For the same substance, the “adverse events considered related to study drug” value ([2]; of the 30 adverse events reported) was 3, the “subjects reporting a serious adverse event” value ([2]; ten subjects, single 3 mg/kg) was “Three” and the “clinical or postmortem evidence of toxicity” value [3] was “did not demonstrate clinical or postmortem evidence of significant toxicity”. The embryo deaths ([4]; 3 mg/kg repeated intravenous doses) was “one”, the embryo deaths ([4]; 10 mg/kg repeated intravenous doses) was “two” and the embryo deaths ([4]; 30 mg/kg repeated intravenous doses) was “two”. For the same substance, the “pregnant females that aborted” value [5] was “One of five”, the “mean CDAI scores compared to mean baseline” value ([6]; 2 and 4 weeks post-treatment, single 3 mg/kg) was “significantly decreased” and the “subjects requiring rescue therapy” value ([6]; Week 2 post-treatment, single 3 mg/kg, placebo 33%) was 11%. For the same substance, the “subjects withdrawn because of an adverse event” value ([6]; single 3 mg/kg) was “No subjects”, the “subjects reporting one serious adverse event” value ([6]; single 3 mg/kg, 18 treated) was “Six” and the safety and tolerability ([6]; single intravenous dose of 3 mg/kg, subjects with CD) was “safe and well tolerated”. For the same substance, the “subjects in clinical remission (CDAI<150)” value ([6]; two weeks after single 3 mg/kg intravenous infusion, placebo 8%) was 39%, the “signs and symptoms of EAE” value (guinea pig EAE; dose of 3 mg/kg) was “significant delay in onset and a reversal of the signs and symptoms of EAE” and the “signs and symptoms of EAE” value (guinea pig EAE; lower doses than 3 mg/kg) was “not effective”.
